T1: SUDV VLP (Sudan virus (SUDV), UniProt Q66814 33-676)
T1 sequence: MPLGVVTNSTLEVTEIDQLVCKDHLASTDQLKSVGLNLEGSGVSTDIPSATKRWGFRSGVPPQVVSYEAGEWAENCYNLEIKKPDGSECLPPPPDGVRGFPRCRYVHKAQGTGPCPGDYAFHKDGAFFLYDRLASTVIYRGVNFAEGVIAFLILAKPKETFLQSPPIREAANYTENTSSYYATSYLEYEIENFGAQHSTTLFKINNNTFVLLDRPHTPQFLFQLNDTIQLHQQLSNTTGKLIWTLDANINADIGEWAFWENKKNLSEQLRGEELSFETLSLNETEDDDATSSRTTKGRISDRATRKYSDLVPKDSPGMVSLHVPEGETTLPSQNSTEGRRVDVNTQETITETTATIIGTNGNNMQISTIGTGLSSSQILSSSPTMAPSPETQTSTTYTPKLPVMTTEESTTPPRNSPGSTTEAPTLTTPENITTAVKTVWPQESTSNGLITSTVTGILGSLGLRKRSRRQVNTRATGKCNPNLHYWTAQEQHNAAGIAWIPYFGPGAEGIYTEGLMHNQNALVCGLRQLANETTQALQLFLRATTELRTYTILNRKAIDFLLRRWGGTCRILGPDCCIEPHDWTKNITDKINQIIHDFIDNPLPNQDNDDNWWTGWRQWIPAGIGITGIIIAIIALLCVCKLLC

T2: EBOV VLP (Ebola virus (EBOV), UniProt Q05320 33-676)
T2 sequence: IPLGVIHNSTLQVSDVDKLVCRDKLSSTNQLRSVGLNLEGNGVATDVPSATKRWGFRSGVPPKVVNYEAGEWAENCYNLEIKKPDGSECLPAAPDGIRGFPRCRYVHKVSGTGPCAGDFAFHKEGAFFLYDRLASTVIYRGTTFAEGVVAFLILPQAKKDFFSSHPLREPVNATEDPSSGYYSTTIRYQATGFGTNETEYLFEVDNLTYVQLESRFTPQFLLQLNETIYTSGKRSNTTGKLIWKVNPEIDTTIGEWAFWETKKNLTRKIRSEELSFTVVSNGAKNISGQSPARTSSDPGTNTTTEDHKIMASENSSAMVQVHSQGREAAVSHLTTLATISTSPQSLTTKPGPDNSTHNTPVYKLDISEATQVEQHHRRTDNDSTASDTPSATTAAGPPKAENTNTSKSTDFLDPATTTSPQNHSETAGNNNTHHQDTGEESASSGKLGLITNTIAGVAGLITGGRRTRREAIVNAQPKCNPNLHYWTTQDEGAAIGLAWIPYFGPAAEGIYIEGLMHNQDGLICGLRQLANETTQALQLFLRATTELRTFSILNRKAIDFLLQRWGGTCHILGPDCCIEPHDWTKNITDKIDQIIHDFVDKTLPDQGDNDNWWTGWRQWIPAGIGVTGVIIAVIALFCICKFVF


How the values were obtained:
SUDV VLP = target: T1, SUDV VLP; assay: ELISA
EBOV VLP = target: T2, EBOV VLP; assay: ELISA

| Binder | EC50 (SUDV VLP) [nM] | EC50 (EBOV VLP) [nM] |
| --- | --- | --- |
| FVM35 (antibody, V domains shown) VH: EVQLVQSGAEVKRPGESLTISCKTSGYSFTSYWITWVRQMPGKGLEWLGSIYPGDSETKYNPSFQGHVTISADKSVTTTYLKWSSLKASDTATYYCVKGSETWGQGVLVTVSS VL: QPVLTQPASLSASPGASASLTCTFSGGINVAGYNILWYQQKAGSPPRYLLRYKSDSTKDQGSGVPSRFSGSKDASANTGILRISGLQSEDEADYYCAIGHSSGWIFGGGTRLTVL | 0.14 | 0.233 |
| FVM10 (antibody, V domains shown) VH: QVQLVQSGAEVKRPGESLKISCQTSGYSFTDSWVAWVRQMPGKGLEWLGSIYPGDSETKYNPSFQGHVTISADKSISTAYLQWSSLKASDTATYYCAKGSETWGQGLRVTVSS VL: QAGLTQPASLSASPGASASLTCTFSGGINVAGYNILWYQQKPGSPPRYLLRYKSDSDKDQGSGVPSRFSGSKDASANTGILRISGLQSEDEADYYCAIGHSSGWIFGGGTRLTVL | 0.687 | 0.653 |
| FVM25 (antibody, V domains shown) VH: EVQLVHSGAEVKRPGESLTISCKTSGYTFTDYWIAWVRQMPGKGLEWMASIYPDDSDTRYNPSFQGHVTISADKSISTTYLQWSSLRASDTATYYCVKGSETWGQGVLVTVSS VL: QLVLTQPASLSASPGTSASLTCTFSGGINVAGYNILWYQQKPGSPPRFLLRYKSDSDNVQGSGVPSHFSGSKDASTNTGILRISGLQSEDEADYYCAIGHSSGWVFGGGTRLTVL | 0.96 | 0.473 |
| FVM17 (antibody, V domains shown) VH: EVQLVQSGAEVKRPGESLTISCKTSGYSFTDSWISWVRQMPGKGLEWMGSIYPGDSDARYNPSFQGHVTISADKSISTTYLKWSSLKASDTATYYCVKGSETWGQGVLVTVSS VL: QAVVTQPASLSASPGTSASLTCTFSGGINVAGYNILWYQQKPGSPPRFLLRYKSDSDNVQGSGVPSHFSGSKDASANTGILRISGLQSEDEADYYCAIGHSSGWIFGGGTRLTVL | 1.43 | 0.767 |
| FVM19 (antibody, V domains shown) VH: QVQLVQSGAEVKRPGESLTISCKTSGYSFTDSWVAWVRQMPGKGLEWLGSIYPGDSDTKYNPSFQGHVTISADKSVTTTYLKWSSLKASDTATYYCVKGSETWGQGVLVTVSS VL: KPMLTQPASLSASPGASASLTCTFSGGINVAGYHIFWYQQKPGSPPRYLLRYKSDSDKGQGSGVPSRFSGSKDASANTGILRISGLQSEDEADYYCAIGHSSGLLFGGGTRLTVL | 5.4 | 0.967 |
| FVM21 (antibody, V domains shown) VH: EVQLVESGAEVKRPGESLTISCKTSGYSFTDSWVAWVRQMPGKGLEWLGSIYPGDSETKYNPSFQGHVTISADKSISTTYLQWSSLRASDTATYYCVKGADDWGPGLLVTVSS VL: SSELTQPASLSASPGASASLTCTFSGGINVAGYNILWYQQKAGSPPRYLLRYKSDSDKGQGSGVPSRFSGSKDASANTGILRISGLQSEDEADYYCAIGHSSGWIFGGGTRLTVL | 0.373 | 0.32 |
| FVM12 (antibody, V domains shown) VH: EVQLVQSGAEVKRPGESLTISCKTSEYSFTGSWISWVRQMPGKGLEWMGSIYPGDSDTRYSPSFQGQVTISADKSVTTTYLKWSSLKASDTATYYCVKGSETWGQGVLVTVSS VL: QPVLTQPASLSASLGASASLTCTFSGGINVAGYNILWYQQKPGSPPRFLLRYKSDSDNVQGSGVPSHFSGSKDASTNTGILRISGLQSEDEADYYCAIGHSSGWVFGGGTRLTVL | 0.673 | 0.622 |
| FVM32 (antibody, V domains shown) VH: QVQLVQSGAEVKRPGESLRISCKTSGYSFTDSWVAWVRQMPGKGLEWLGSIYPGDSDTRYSPSFQGQVTISADKSITTAYLKWSSLKASDTATYYCVKGSETWGQGVLVTVSS VL: QPVLTQPASLSASPGASASLTCTFNGGITVPGYDILWYQQKSGSPPRYLLRYKSDSTKDQGSGVPSRFSGSKDASTNTGILRISGLQSEDEADYYCAIGHSSGWIFGGGTRLTVL | 0.187 | 0.66 |
| FVM24 (antibody, V domains shown) VH: EVQLVQSGAEVKRPGESLKISCKTSGYSFTDSWVAWVRQMPGKGLEWMGSIYPGDFQTRYNPSFQGHVTLSADKSISTTYLQWSSLKASDTATYYCVKGSETWGPGVLVTVSS VL: SSGLTQPASLSASPGASASLTCTFSGGINVAGYNILWYQQKAGSPPRYLLRYKSDSTKDQGSGVPSRFSGSKDVSANTGILRISGLQSDDEADYYCAIGHSSGWIFGGGTRLTVL | 3.2 | 0.513 |
| FVM18 (antibody, V domains shown) VH: QVQLVQSGAEVKRPGESLKISCKTSGYSFTNIWISWVRQMPGKGLEWLGSIYPGDSETKYNPSFQGHVTISADKSVTTTYLKWSSLKASDTATYYCVKGSETWGQGVLVTVSS VL: NFMLTQPASLSASPGASASLTCTFSGGINVAGYHILWYQQKPGSPPRYLLRYKSDSEKDQGSGVPSRFSGSKDASANRGILRISGLQSEDEADYYCAIGHSSSGWVFGGGTRLTVL | 1.08 | 1.03 |
| FVM23 (antibody, V domains shown) VH: QVQLVQSGAEVKRPGESLTISCKTSGYSFTGSWISWVRQMPGKGLEWMGSIYPGDSDTTYNPSFQGHVTISADKSISTAYLQWTSLKASDTATYYCVKGSETWGQGVLVTVSS VL: SYELTQPASLSASPGASASLTCTFSGGINVAGYNILWYQQKAGSPPRYLLRYKSDSTKDQGSGVPSRFSGSKDASANTGILRISGLQSEDEADYYCAIGHSSGLIFGAGTRLTVL | 0.353 | 0.367 |
| FVM38 (antibody, V domains shown) VH: QVQLVQSGAEVKRPGESLTISCKTSGYSFTDSWIGWVRQMPGKGLEWMASIYPDDSETKYNPSFQGHVTISADKSVTTTYLKWSSLKASDTATYYCVKGSETWGQGVLVTVSS VL: QPVLTQPASLSASPGASASLTCTFSGGINVAGYNILWYQQKAGSPPRYLLRYKSDSTKDQGSGVPSRFSGSKDASANTGILRISGLQSEDEADYYCAIGHSSGWIFGGGTRLTVL | 0.147 | 0.253 |
| FVM37 (antibody, V domains shown) VH: QVQLVQSGAEVKRPGESLKISCKTSGYRFTSSWISWVRQMPGKGLEWLGSIYPGDSETKYNPSFQGHVTISADKSVTTTYLKWSSLKASDTATYYCVKGSETWGQGVLVTVSS VL: SSELTQPASLSASPGASASLTCTFSGGINVAGYNILWYQQKAGSPPRYLLRYKSDSTKDQGSGVPSRFSGSKDASANTGILRISGLQSEDEADYYCAIGHSSGWIFGGGTRLTVL | 0.127 | 0.227 |
| FVM40 (antibody, V domains shown) VH: EVQLVQSGAEVKRPGESLTISCKTSGYSFTDSWISWVRQMPGKGLEWMGSIYPGDSETKYNPSFQGHVTISADKSVTTTYLKWSSLKASDTATYYCVKGSETWGQGVLVTVSS VL: QPMLTQPASLSASPGASASLTCTFSGGINVAGYNILWYQQKAGSPPRYLLRYKSDSTKDQGSGVPSRFSGSKDASANTGILRISGLQSEDEADYYCAIGHSSGWIFGGGTRLTVL | 0.113 | 0.173 |
| FVM41 (antibody, V domains shown) VH: EVQLVQSGAEVKRPGESLKISCKTSGYSFTDTWISWVRQMPGKGLEWMGSIYPGDSETKYNPSFQGHVTISADKSVTTTYLKWSSLKASDTATYYCVKGSETWGQGVLVTVSS VL: ETVVTQPASLSASPGASASLTCTFSGGINVAGYNILWYQQKAGSPPRYLLRYKSDSTKDQGSGVPSRFSGSKDASANTGILRISGLQSEDEADYYCAIGHSSGVLFGGGTRLTVL | 0.32 | 0.36 |
| FVM28 (antibody, V domains shown) VH: EVQLVQSGAEVKRPGESLKISCQTSGYRFTSSWISWVRQMPGKGLEWMGAIDPSDSETRYSPSFQGQVTISADKSISTAYLKWSSLKASDTATYYCVKGSETWGQGVLVTVSS VL: QAALTQPASLSASPGASASLTCTFSGGINVAGYHILWYQQKPGSPPRYLLRYKSDSEKDQGSGVPSRFSGSKDASANRGILRISGLQSEDEADYYCAIGHSSSGWVFGGGTRLTVL | 0.58 | 0.593 |

Reference: US20170334973A1 (INTEGRATED BIOTHERAPEUTICS, published 2017)
